Substrate in this data set: S=C=NCCc1ccccc1
Description: purified protein. Format: biochemical, Phanerodontia chrysosporium. To be noted: 5 mM GSH, pH 6.5, 2% acetonitrile.

B1: PcGSTFuA1 (Phanerodontia chrysosporium) (protein)
chain: MAQPIVFYDIPSNERIKHSPWSPNTWKIRYALNYKGLKYKTEWVEYPDIAGVVQKLGGKPTEKTPDGRDHYTLPVIYDPNTKKVVEDSAAIAKYLDETYPDTPKLFPAGTDAFQAAFLDFAWPVLGFPVFMLVILDTANSLLPRSHDYFRSTREQKFGKKLEELATEEEWAKVEAGLAKLKGYLDANGKGNDLLLMGAQGGITYSDIQIASFFVWAKIIWGEGSEKWKRLISLHDGKWAQFYAQFTKFEQVDV
notes: full length, untagged, pET-3d, E. coli BL21(DE3) pSBET; Ala inserted after Met1; dimer; primers encode N-term MAQPIVF, C-term EQVDV
One may read the Km as the concentration of substrate that gives half-maximal velocity. In general, kcat refers to the maximal rate divided by the concentration of active sites. As for B1, the Michaelis constant (Km) was 119.0 ± 14.4 µM and the kcat stood at 8.515 ± 0.267 s⁻¹.

The record behind these values is paper PMC3835915, “Diversification of Fungal Specific Class A Glutathione Transferases in Saprotrophic Fungi” (PLoS ONE, 2013).
